Assay [1] has as its system obstructive human coronary thrombi and aortic atherosclerotic plaque. Nature of the assay: Confocal immunofluorescence on coronary thrombi and atherosclerotic plaque. Particulars: Cyanine 3 labelled antibody. The protocol:
NI-206.82C2 was labelled with Cyanine 3 for fluorescent imaging (Cy3 conjugation kit: Innova Biosciences, 340-0030) and antibody labelling was validated using a spectophotometer. Cryosections from myocardial infarction causing obstructive human coronary thrombi (FIG. 14, A) and human aortic atherosclerotic plaque (FIG. 14, B) were fixed for 5 minutes in ice cold acetone and allowed to dry for 10 minutes before washing in PBS. The sections were then incubated for 1 hr at room temperature in 5% BSA in PBS, and then incubated with Cyanine 3 labelled antibodies overnight at 4° C., before washing three times in PBS before incubation with DAPI at 0.5 μg/mL. Sections were then washed three additional times in PBS and mounted in Lisbeth's mounting medium before imaging on a SP8 confocal microscope (Leica Microsystems).

Assay [2] deals with directly coated FAP peptides mixture (cFAP). As to the kind of experiment: Direct ELISA, mixture of FAP-specific peptides directly coated. The class given is binding, human. Particulars: non-linear regression. The protocol:
ELISA assays were performed with varying antibody concentrations to validate the binding of the exemplary antibodies of the present invention to FAP and to be able to determine their half maximal effective concentration (EC50). For the exemplary recombinant human NI-206.82C2, NI-206.59B4, NI-206.22F7, NI-206.27E8, NI-206.12G4 and NI-206.17A6 antibodies, 96-well microplates (Costar, Corning, USA) were coated with FAP, with a mixture of the 3 peptides or with BSA (Sigma-Aldrich, Buchs, Switzerland) diluted to a concentration of 5 μg/ml in carbonate ELISA coating buffer (15 mM Na2CO3, 35 mM NaHCO3, pH 9.4) for the direct ELISA. For the capture ELISA, the microplates were coated with mouse anti-His monoclonal antibody (Clontech) diluted to a concentration of 3 μg/ml in PBS, the plates were then blocked, FAP or BSA were diluted to a concentration of 2 μg/ml in PBS and added to the plates to be captured. The binding efficiency of the antibodies was then tested. The exemplary NI-206.82C2 antibody specifically and strongly binds to the captured FAP and less efficiently to the directly coated FAP. The exemplary NI-206.59B4 antibody specifically, strongly and similarly binds to the captured FAP and to the directly coated FAP.
The EC50 values were estimated by a non-linear regression using GraphPad Prism (San Diego, USA) software. […] The binding of NI-206.12G4 towards sFAP was not tested.

Assay [3] addresses T1, FAP from human plasma (Homo sapiens, UniProt Q12884).
T1 construct: from tissue; host or cells: human blood plasma
T1 sequence (Q12884 24-760 limits assumed): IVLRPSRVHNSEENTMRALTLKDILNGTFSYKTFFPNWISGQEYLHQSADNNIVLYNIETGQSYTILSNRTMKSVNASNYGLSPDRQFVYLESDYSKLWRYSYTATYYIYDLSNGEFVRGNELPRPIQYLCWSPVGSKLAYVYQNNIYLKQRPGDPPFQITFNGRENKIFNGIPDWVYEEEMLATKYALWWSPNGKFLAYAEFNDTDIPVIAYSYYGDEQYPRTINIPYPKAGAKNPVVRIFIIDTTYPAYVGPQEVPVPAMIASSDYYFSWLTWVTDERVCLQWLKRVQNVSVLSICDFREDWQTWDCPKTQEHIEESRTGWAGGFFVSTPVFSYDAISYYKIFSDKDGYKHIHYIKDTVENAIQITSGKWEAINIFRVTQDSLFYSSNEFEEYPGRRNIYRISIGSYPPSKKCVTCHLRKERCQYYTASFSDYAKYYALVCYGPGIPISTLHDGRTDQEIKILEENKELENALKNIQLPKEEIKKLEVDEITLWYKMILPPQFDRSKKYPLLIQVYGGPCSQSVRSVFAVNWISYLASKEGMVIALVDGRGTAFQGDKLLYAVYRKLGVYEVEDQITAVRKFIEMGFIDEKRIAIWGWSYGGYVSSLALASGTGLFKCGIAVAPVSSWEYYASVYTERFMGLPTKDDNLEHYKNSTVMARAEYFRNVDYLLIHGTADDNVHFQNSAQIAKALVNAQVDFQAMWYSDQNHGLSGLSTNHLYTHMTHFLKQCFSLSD
Nature of the assay: Immunoprecipitation of FAP from human plasma, α2AP-AMC cleavage in supernatant. The class given is biochemical. The conditions noted are these: compared to plasma before immunoprecipitation. The protocol:
100 μL of PureProteome G Magnetic Beads (Millipore LSKMAGG02) were suspended in 500 μL of 25 mM TRIS, 0.15M NaCl, and 0.1% Tween 20. Human plasma was diluted 1:5 in PBS to an end volume of 125 μL, separated into four tubes, and incubated for 30 min at RT with rotation. Beads were then collected with a magnetic stand, and the pre-cleared supernatant was transferred to a new tube containing magnetic beads coated with 82C2, 43A11, or 3A1. Antibody-conjugated beads were incubated with the plasma dilution overnight at 4° C. while rotating. Beads were then collected with a magnetic stand and the supernatant was removed of analysis of α2AP-AMC cleavage activity. To determine α2AP-AMC activity in the supernatants, a half area black 96 well plate was blocked with sterile filtered 5% BSA at 37° C. for 1h. Then 40 μL of PBS was added to all the wells, 5 μL of the supernatant solutions to the appropriate wells, and 5 μL of α2AP-AMC solution in methanol was added for a final assay concentration of 10 μM. The fluorescence intensity (cleaved AMC) was measured at 360 nm excitation and 460 nm emission every 3 min over a total time of 30 min and the reaction velocity was calculated using Graphpad Prism 6 software.

B1: NI-206.82C2: recombinant human memory B cell-derived monoclonal anti-FAP IgG1 antibody, variable regions in FIG. 1A, FAP inhibitory (antibody, V domains shown)
VH: QVQLQQSGPGLVKPSQTLSLTCAISGDSVSSNSVTWNWIRQSPSRGLEWLGRTYYRSKWYNDYAVSVKGRITINPDTSKNQFYLQLKSVTPEDAAVYYCARDSSILYGDYWGQGTLVTVSS
VL: QAVLTQPSSLSASPGASASLTCTLPSGINVGTYRIFWFQQKPGSPPQYLLSYKSDSDNHQGSGVPSRFSGSKDASANAGILLISGLQSEDEADYYCMIWHSSAWVFGGGTKLTVL
Consider B1, for which, in assay [1], the “binding to obstructive human coronary thrombi and aortic atherosclerotic plaque” value is given as “binds”. Moreover, the “EC50, binding to directly coated FAP peptides mixture (cFAP)” value in assay [2] is given as “did not show any binding”. For the same molecule, in assay [3], the “rate of FAP substrate alpha 2 anti-plasmin (α2AP-AMC) cleavage in plasma after immunoprecipitation” value is given as “significantly reduces”.

These data come from patent US20170369592A1, “NOVEL ANTI-FIBROBLAST ACTIVATION PROTEIN (FAP) ANTIBODIES AND USES DERIVED THEREOF” (Mabimmune Diagnostics AG, priority 2015, published 2017).
